What was measured:
[1] = optimisation of liraglutide:protamine molar ratios: free liraglutide and protamine in supernatant by liquid chromatography; conditions: pH 7,8; 0,11 molecule of protamine per molecule of liraglutide
Experimental: In each of 8 containers, 10% of the resulting suspension was transferred. Under vigorous stirring, a specific portion of a 18 mM Protamine Chloride solution was added.
The initial container received 0,10 mL of the 18 mM Protamine Chloride solution, followed by 0,2 mL to the second container; ending with addition of 0,8 mL to the final container (number 8). Water was added to each of the eight containers to achieve a total of 5,0 grams of suspension. After 1 hour storage, about 1 mL were withdrawn from each container and centrifuged for 10 minutes at high speed.

[2] = achievable concentration of protamine sulphate stock solution with NaCl; format: physicochemical; conditions: 21° C.
Experimental: In one embodiment, the stock solution of the polycationic compound is prepared with NaCl. […] This allows the storage and/or use of higher concentrations and lowers the volumes of polycationic compound stock solution needed. This makes much larger volume available for either the GLP-1 compound stock solution or the solution of metal salt. Thereby, it is easier to control the mixing process, involving the aqueous solution of GLP-1 compound and the stock solution of metal salt. As a result of this, the injectability of the final formulation is improved, especially after storage at elevated temperatures. For example, a 30-60 mg/mL protamine sulphate stock solution is achievable at 21° C. when adding sodium chloride corresponding to a concentration of 0,3M, and a 30-80 mg/mL protamine sulphate stock solution is achievable at 21° C. when adding sodium chloride corresponding to a concentration of 0,5M.

Compound | composition stability and incorporation of protamine [1] | achievable stock solution concentration ([2]; sodium chloride 0,3M) | achievable stock solution concentration ([2]; sodium chloride 0,5M)
CCCCCCCCCCCCCCCC(=O)N[C@@H](CCC(=O)NCCCC[C@H](NC(=O)[C@H](C)NC(=O)[C@H](C)NC(=O)[C@H](CCC(N)=O)NC(=O)CNC(=O)[C@H](CCC(=O)O)NC(=O)[C@H](CC(C)C)NC(=O)[C@H](Cc1ccc(O)cc1)NC(=O)[C@H](CO)NC(=O)[C@H](CO)NC(=O)[C@@H](NC(=O)[C@H](CC(=O)O)NC(=O)[C@H](CO)NC(=O)[C@@H](NC(=O)[C@H](Cc1ccccc1)NC(=O)[C@@H](NC(=O)CNC(=O)[C@H](CCC(=O)O)NC(=O)[C@H](C)NC(=O)[C@@H](N)Cc1cnc[nH]1)[C@@H](C)O)[C@@H](C)O)C(C)C)C(=O)N[C@@H](CCC(=O)O)C(=O)N[C@@H](Cc1ccccc1)C(=O)N[C@H](C(=O)N[C@@H](C)C(=O)N[C@@H](Cc1c[nH]c2ccccc12)C(=O)N[C@@H](CC(C)C)C(=O)N[C@H](C(=O)N[C@@H](CCCNC(=N)N)C(=O)NCC(=O)N[C@@H](CCCNC(=N)N)C(=O)NCC(=O)O)C(C)C)[C@@H](C)CC)C(=O)O [liraglutide, N^ε26-[(4S)-4-carboxy-4-(hexadecanoylamino)butanoyl]-[Arg^34]-GLP-1-(7-37)-peptide] | good composition stability | – | –
protamine sulphate | – | 30 to 60 mg/mL | 30 to 80 mg/mL

Reference: patent US20140045754A1, “GLP-1 COMPOSITIONS” (priority 2011, published 2014)
